Results taken from patent US6632626 (dated 2003).
Blank lines part the entries; values can stand above or below the binder they belong to.

How the values were obtained:
[1] = biological target: T1, rat brain farnesyl:protein transferase (rat, UniProt Q04631 2-377; Q02293 1-437); assay: cell-based or functional assay
[2] = biological target: T1, rat brain farnesyl:protein transferase; assay: cell-based or functional assay; remark: listed apart in the source

Concentration for 50% Inhibition (farnesyl transfer to p21^H-ras) [1]: 100 µM
B1: CAIL (peptide)
peptide: CAIL

concentration giving 50% inhibition (farnesyl transfer to p21^H-ras) [2]: > 40 µM
B2: CVIM with glutamic acid at the X position (peptide)
peptide: CVIE

concentration giving 50% inhibition (farnesyl transfer to p21^H-ras) [2]: > 40 µM
B3: CVIM with glycine at the X position (peptide)
peptide: CVIG

concentration giving 50% inhibition (farnesyl transfer to p21^H-ras) [2]: > 40 µM
B4: CVIM with lysine at the X position (peptide)
peptide: CVIK
